Laboratory results: the nanobody polyreactivity screen of Harvey et al. (2022)

Assay: yeast display, Sf9 membrane polyspecificity reagent, FACS + sequencing; frameworks hold sequencing errors
Procedure, shortened: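 Synthetic nanobody libraries on Saccharomyces cerevisiae BJ5465 were galactose-induced for 36–48 hours, stained 1 hour at 4 °C with 10% biotinylated, detergent-solubilized Sf9 membrane reagent and enriched on streptavidin microbeads. FACS then separated cells into low and high (top ~1%) gates by anti-HA (expression) and streptavidin (reagent binding) fluorescence. Genes were colony-PCR amplified, MiSeq 2 × 250 sequenced and CDR-length filtered. A clone's polyreactivity label is that of its gate of origin.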

Sequence | polyreactivity (PSR sort gate)
QVQLVESGGGLVQAGGSLRLTWAATGSIFRTNAMGSYRPAPGKERELVAAITGSGGSTYYADSVKGRFTISRYNAKNTVYLQMNCLKPEETAVYYCAAEFGSFVSPYNYYYWGQGTQVTVSS | low polyreactivity
QVQLVESGGGLVQAGGSLLLSSAASGSTLVYYTMGRYIPAPGKERELVAGITGSGGSTYYADSVKGRFTISRDNAKNTVYLQMNILIPEDTAVYYCAKRGFRSYHYIRGVYYWGQGTQVTVSS | low polyreactivity
QVQLVESGGGLVQAGGSLRLSCAASGSIFYSNAMGWYRQAPGKERELVADISWSDGSTYYADSVKGRFTISRDNAKNNVYLQMNSLKPEDTAVYYCARKAGYSYFRRYDYWGQGTQVTVSS | low polyreactivity
QVQLVESGGGLVQAGGSLRLSCAASGSTFDYYYMGWYRQAPGKERELVAAISYSGTSTYYADSVKGRFTISRDNAKNTVYLQMNSQKPEDTAVYYCAKVFPDWYWYDYCGQGTQVTVSS | low polyreactivity
QVQLVESGGGLVQAGGSLRLSCAASGRILWWYAMGWYRQAPRKEREFFAAITTSGGSTYYADSVKGRFTISRDNAKNTVYLQMTSLKPEDNAVYYCAADLFVRNLVYTYDYDYWGQGTQVTVSA | high polyreactivity
QVQLVESGGGLVQAGGSLRLSCAASGSTFQFYAMGWYRQAPGKEREFVAAITTRSGSTYYADSVKGRFTISRDNAKNTVYLQMNSLKPEDTAVYYCAAYIYGHSSDSVRYEYWGQGTQVTVSS | low polyreactivity
QVHLEESGRRLVQAGGSLRLSCAASGSIFSYYAMGWSRPAPGKEWELVAAISQSGGSTYYADSVKGRFTISGDNAKNTVDLQMNSLKPEDTAVYSCNAVARHTRAKYGSWGQGTQVTVSS | low polyreactivity
QVHLVESGGGLVQAGGRLRLSCAASGRIFGTNAMGWYRQAPGKERELVATITRGGGNTYYADSVKGRFTISRDKAKNTVYLQRNSLKPEDTAVYYCAAKFHRFAWFSHYDYWGQGTQVTVSS | low polyreactivity
QVQLVESGGGLVQAGGSLRLSCAASGSIFQQYAMGWYRQAPGKERELVAAISYSGGTTYYADSVKGRFTISRDNAKNTVYLQMNSLKPEDTAVYYCAAYYPSGSYDYYWGQGTQVTVSS | low polyreactivity
QVQLVESGAGLVQAGGSLRLSCAASGRTFHRYAMGWYRQAPGKERELVATINRNGGSTYYADSVKGRFTISRDNAKNTVYLQMNSLKPDDTAVYYCNKRVYTGYKYSESFDRYYYWGQGTQVTVSS | high polyreactivity
QVQLVESGGGLVQAGGSLRLSCAAWSIFYLNAMGWNRQAPGKERELDAAISSAGSTYYADSVKGRFTISRDNAKNTFYLQMNSLKPEDTAVYYCAAYWYDSPGVTEIWYDYWGQGTQVTVSS | low polyreactivity
QVQLQESGAGLEQAGGSLRMSCAASGYSSDIGTMGWYRQAPGKEREFVATIVVGSTTNYADSVKGRFTISRDNAKNTVYLQPESGRYRGVLLRGWLLAVGKFTYWGQGTQETVSS | low polyreactivity
QVQLVESGGGLVQAGGSFRLSCAASGFTLYGNAMGWSRQAPGNDRELVATIRSTGSTTYADSVKGRFTISRDNAKNTVYLQMNSLKPEDTAVHYCAKVSTYGGRHRWPGSIYDYWGQGTQVTVSS | low polyreactivity
QVQLVESGGGLVQAGGSLRLSCAASGIIFYTNAMGWYRQAPGKEREFVAAINTSGGITYYADSVKGRFTISRDNATNTVYLQMNSLKPEDTAVYYCAKDRRYRPPYGYEIEYAYWGQGTQVTVAS | low polyreactivity
QVQLVESGGGLVQAGGSLRLSCAASGFIFGNNDRGWYRQAPGKERELVAGITWSGSSTYYADSVKGRFTISRDNAKNTVYLQMNSLKPEDTAVYYCIRVFTWRYGYRYEYWGQGTQVTVSS | high polyreactivity
QVQLEESGGGLVQAGGILRLSCAASGSMFVAYTMGWYRQEPGKERELVAAISRGGSTNYADSVKGRFTISRDNAKTTVYLQMNSLKPEDTAVYYCAAKVWDGQLLYYWGQGTQVTVSS | low polyreactivity
QVQLVESGGGLVQAGGSLRLSCAASGIIFLEYAMGWYRQAPGKERELVAAISSDDGSSTYYADSVKGRFTISRDNAKNTVYLKMNSLKPEDTAVYYCAAYGGGGYYYDYEYWGQGTQVTVSS | high polyreactivity
QVQLLESGGGLVQAGGSLRLSCAASGYTLRKYAMGWYRQAPGKERELVAAIRTSGGSTYYADSVKGRFTISRDNAKNTVYLQMNSLKPEDTAVYYCAAEWIFSYTWEYDYWGQGTQVTVSS | low polyreactivity
QVQLVESGGGLVQAGCSLRLSCAASGRTFDSYTMGWYRQAPGKERELVAAIRSSGGRTYADSVKGRFTISRDNAKNTVYLQMNSLKPEDTAVYYCDADRRGSHYYRYKYGYWGQGTQVTVSS | high polyreactivity
QVQLVESGGGLVQAGGILRLSCAASGRTFGRNAMGWYRQAPGKERELVARITSGGSTSYADSVKGRFTISRDNAKNTVYLQMNSLKPEDTAVYYCAKGSYGVAYFTHTARYYGGYEYWGQGTQVTVSS | high polyreactivity
QVQHVESGGCLVQAGGSLRLSCASSGRTFARYAMGWSRQPPGKDSELVAAITRRGGSTYYADSVKGRFTLSRDNAKNTVSLQMNSLKPEDTAVYYCAAHYRNFGIGAYEYWGKGTQVTVSS | high polyreactivity
